Data set [1] has as its target T1, biotinylated human Regnase-1 (full length, C-terminal BirA recognition sequence, GST tag cleaved).
T1 chain: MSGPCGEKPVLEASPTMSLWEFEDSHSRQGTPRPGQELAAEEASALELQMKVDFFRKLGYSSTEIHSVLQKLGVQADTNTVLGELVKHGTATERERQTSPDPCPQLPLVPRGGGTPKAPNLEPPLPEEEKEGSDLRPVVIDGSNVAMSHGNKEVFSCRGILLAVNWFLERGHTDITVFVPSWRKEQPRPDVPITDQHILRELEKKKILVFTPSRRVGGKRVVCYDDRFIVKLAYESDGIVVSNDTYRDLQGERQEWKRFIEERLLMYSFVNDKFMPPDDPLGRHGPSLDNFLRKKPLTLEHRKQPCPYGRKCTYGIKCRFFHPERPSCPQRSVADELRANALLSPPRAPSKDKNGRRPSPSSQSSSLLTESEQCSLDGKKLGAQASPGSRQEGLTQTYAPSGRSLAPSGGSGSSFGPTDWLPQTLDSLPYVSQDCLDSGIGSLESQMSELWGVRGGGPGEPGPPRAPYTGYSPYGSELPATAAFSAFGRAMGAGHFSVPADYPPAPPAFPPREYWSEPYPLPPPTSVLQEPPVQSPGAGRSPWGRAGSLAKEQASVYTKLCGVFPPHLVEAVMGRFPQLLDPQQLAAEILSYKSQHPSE

The target in data set [2] is T2, FLAG-tagged Regnase-1 AA mutant (S435A/S439A), purified from or expressed in Regnase-1-deficient MEFs.
T2 chain: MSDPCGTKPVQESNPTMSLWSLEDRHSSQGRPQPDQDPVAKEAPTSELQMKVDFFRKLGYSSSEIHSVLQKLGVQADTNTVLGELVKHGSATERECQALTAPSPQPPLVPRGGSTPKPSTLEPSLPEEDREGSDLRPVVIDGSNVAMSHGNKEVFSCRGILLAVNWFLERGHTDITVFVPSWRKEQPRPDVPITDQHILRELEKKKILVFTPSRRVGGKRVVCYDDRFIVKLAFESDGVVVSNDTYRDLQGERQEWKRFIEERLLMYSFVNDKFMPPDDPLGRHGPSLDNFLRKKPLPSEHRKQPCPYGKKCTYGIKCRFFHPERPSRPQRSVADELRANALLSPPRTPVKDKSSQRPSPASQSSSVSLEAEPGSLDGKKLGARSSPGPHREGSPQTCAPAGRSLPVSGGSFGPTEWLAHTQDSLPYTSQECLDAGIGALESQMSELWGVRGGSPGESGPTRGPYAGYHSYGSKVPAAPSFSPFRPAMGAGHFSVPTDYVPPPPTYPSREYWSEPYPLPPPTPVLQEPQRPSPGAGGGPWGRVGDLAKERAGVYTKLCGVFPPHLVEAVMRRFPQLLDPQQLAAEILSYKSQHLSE

These results are taken from patent US20250018014A1, “METHOD FOR TREATING AND/OR PREVENTING REGNASE-1-RELATED DISEASE” (OSAKA UNIVERSITY, priority 2018, published 2025).

B1: IKKβ (manufactured by SignalChem) (protein)
chain: MSWSPSLTTQTCGAWEMKERLGTGGFGNVIRWHNQETGEQIAIKQCRQELSPRNRERWCLEIQIMRRLTHPNVVAARDVPEGMQNLAPNDLPLLAMEYCQGGDLRKYLNQFENCCGLREGAILTLLSDIASALRYLHENRIIHRDLKPENIVLQQGEQRLIHKIIDLGYAKELDQGSLCTSFVGTLQYLAPELLEQQKYTVTVDYWSFGTLAFECITGFRPFLPNWQPVQWHSKVRQKSEVDIVVSEDLNGTVKFSSSLPYPNNLNSVLAERLEKWLQLMLMWHPRQRGTDPTYGPNGCFKALDDILNLKLVHILNMVTGTIHTYPVTEDESLQSLKARIQQDTGIPEEDQELLQEAGLALIPDKPATQCISDGKLNEGHTLDMDLVFLFDNSKITYETQISPRPQPESVSCILQEPKRNLAFFQLRKVWGQVWHSIQTLKEDCNRLQQGQRAAMMNLLRNNSCLSKMKNSMASMSQQLKAKLDFFKTSIQIDLEKYSEQTEFGITSDKLLLAWREMEQAVELCGRENEVKLLVERMMALQTDIVDLQRSPMGRKQGGTLDDLEEQARELYRRLREKPRDQRTEGDSQEMVRLLLQAIQSFEKKVRVIYTQLSKTVVCKQKALELLPKVEEVVSLMNEDEKTVVRLQEKRQKELWNLLKIACSKVRGPVSGSPDSMNASRLSQPGQLMSQPSTASNSLPEPAKKSEELVAEAHNLCTLLENAIQDTVREQDQSFTALDWSWLQTEEEEHSCLEQAS
On to B1, for which, in data set [1], the “in vitro phosphorylation reaction, western blotting with anti-phosphorylated Regnase-1 antibody” value was “it was confirmed that human Regnase-1 is phosphorylated by IKKβ and TBK1”.

B2: GST-tagged IKKi (Thermo Fisher Scientific) (protein)
chain: MQSTANYLWHTDDLLGQGATASVYKARNKKSGELVAVKVFNTTSYLRPREVQVREFEVLRKLNHQNIVKLFAVEETGGSRQKVLVMEYCSSGSLLSVLESPENAFGLPEDEFLVVLRCVVAGMNHLRENGIVHRDIKPGNIMRLVGEEGQSIYKLTDFGAARELDDDEKFVSVYGTEEYLHPDMYERAVLRKPQQKAFGVTVDLWSIGVTLYHAATGSLPFIPFGGPRRNKEIMYRITTEKPAGAIAGAQRRENGPLEWSYTLPITCQLSLGLQSQLVPILANILEVEQAKCWGFDQFFAETSDILQRVVVHVFSLSQAVLHHIYIHAHNTIAIFQEAVHKQTSVAPRHQEYLFEGHLCVLEPSVSAQHIAHTTASSPLTLFSTAIPKGLAFRDPALDVPKFVPKVDLQADYNTAKGVLGAGYQALRLARALLDGQELMFRGLHWVMEVLQATCRRTLEVARTSLLYLSSSLGTERFSSVAGTPEIQELKAAAELRSRLRTLAEVLSRCSQNITETQESLSSLNRELVKSRDQVHEDRSIQQIQCCLDKMNFIYKQFKKSRMRPGLGYNEEQIHKLDKVNFSHLAKRLLQVFQEECVQKYQASLVTHGKRMRVVHETRNHLRLVGCSVAACNTEAQGVQESLSKLLEELSHQLLQDRAKGAQASPPPIAPYPSPTRKDLLLHMQELCEGMKLLASDLLDNNRIIERLNRVPAPPDV
Regarding B2, the “in vitro phosphorylation (mobility shift by immunoblotting, 32P autoradiography)” value in data set [2] is “Phosphorylation of recombinant Regnase-1 by recombinant TBK1 and/or IKKi under in vitro conditions was detected”.

B3: GST-tagged TBK1 (Sigma) (protein)
chain: MQSTSNHLWLLSDILGQGATANVFRGRHKKTGDLFAIKVFNNISFLRPVDVQMREFEVLKKLNHKNIVKLFAIEEETTTRHKVLIMEFCPCGSLYTVLEEPSNAYGLPESEFLIVLRDVVGGMNHLRENGIVHRDIKPGNIMRVIGEDGQSVYKLTDFGAARELEDDEQFVSLYGTEEYLHPDMYERAVLRKDHQKKYGATVDLWSIGVTFYHAATGSLPFRPFEGPRRNKEVMYKIITGKPSGAISGVQKAENGPIDWSGDMPVSCSLSRGLQVLLTPVLANILEADQEKCWGFDQFFAETSDILHRMVIHVFSLQQMTAHKIYIHSYNTATIFHELVYKQTKIISSNQELIYEGRRLVLEPGRLAQHFPKTTEENPIFVVSREPLNTIGLIYEKISLPKVHPRYDLDGDASMAKAITGVVCYACRIASTLLLYQELMRKGIRWLIELIKDDYNETVHKKTEVVITLDFCIRNIEKTVKVYEKLMKINLEAAELGEISDIHTKLLRLSSSQGTIETSLQDIDSRLSPGGSLADAWAHQEGTHPKDRNVEKLQVLLNCMTEIYYQFKKDKAERRLAYNEEQIHKFDKQKLYYHATKAMTHFTDECVKKYEAFLNKSEEWIRKMLHLRKQLLSLTNQCFDIEEEVSKYQEYTNELQETLPQKMFTASSGIKHTMTPIYPSSNTLVEMTLGMKKLKEEMEGVVKELAENNHILERFGSLTMDGGLRNVDCL
On to B3, for which, in data set [2], the “in vitro phosphorylation (mobility shift by immunoblotting, 32P autoradiography)” value is given as “Phosphorylation of recombinant Regnase-1 by recombinant TBK1 and/or IKKi under in vitro conditions was detected”.

B4: TBK1 (manufactured by SignalChem) (protein)
chain: MQSTSNHLWLLSDILGQGATANVFRGRHKKTGDLFAIKVFNNISFLRPVDVQMREFEVLKKLNHKNIVKLFAIEEETTTRHKVLIMEFCPCGSLYTVLEEPSNAYGLPESEFLIVLRDVVGGMNHLRENGIVHRDIKPGNIMRVIGEDGQSVYKLTDFGAARELEDDEQFVSLYGTEEYLHPDMYERAVLRKDHQKKYGATVDLWSIGVTFYHAATGSLPFRPFEGPRRNKEVMYKIITGKPSGAISGVQKAENGPIDWSGDMPVSCSLSRGLQVLLTPVLANILEADQEKCWGFDQFFAETSDILHRMVIHVFSLQQMTAHKIYIHSYNTATIFHELVYKQTKIISSNQELIYEGRRLVLEPGRLAQHFPKTTEENPIFVVSREPLNTIGLIYEKISLPKVHPRYDLDGDASMAKAITGVVCYACRIASTLLLYQELMRKGIRWLIELIKDDYNETVHKKTEVVITLDFCIRNIEKTVKVYEKLMKINLEAAELGEISDIHTKLLRLSSSQGTIETSLQDIDSRLSPGGSLADAWAHQEGTHPKDRNVEKLQVLLNCMTEIYYQFKKDKAERRLAYNEEQIHKFDKQKLYYHATKAMTHFTDECVKKYEAFLNKSEEWIRKMLHLRKQLLSLTNQCFDIEEEVSKYQEYTNELQETLPQKMFTASSGIKHTMTPIYPSSNTLVEMTLGMKKLKEEMEGVVKELAENNHILERFGSLTMDGGLRNVDCL
Turning to B4, the “in vitro phosphorylation reaction, western blotting with anti-phosphorylated Regnase-1 antibody” value in data set [1] is “it was confirmed that human Regnase-1 is phosphorylated by IKKβ and TBK1”.
